Laboratory results reported in patent US20220119534A1 (DRAGONFLY THERAPEUTICS, published 2022).
Where a chain is given by its changes, count along the chain named.

Assays:
mFc-cNKG2D = target: T1, mFc-cNKG2D (cynomolgus monkey, UniProt P61252 73-216); test: SPR Biacore 37 C; mFc-tagged cyno NKG2D dimer, TriNKET as analyte; kinetics fit; average of 4
T1 construct: extracellular domain; Made in house (Dragonfly Tx); also called recombinant cyno NKG2D extracellular domain (ECD); mFc-tagged cyno NKG2D dimer; not shown: mouse Fc tag
T1 sequence (looked up): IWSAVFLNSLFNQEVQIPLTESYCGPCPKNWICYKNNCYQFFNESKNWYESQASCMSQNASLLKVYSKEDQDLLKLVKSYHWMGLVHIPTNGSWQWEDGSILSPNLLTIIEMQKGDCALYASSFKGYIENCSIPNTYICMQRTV

Human CLEC12A-His [1] = target: T2, Human CLEC12A-His (human, UniProt Q5QGZ9 65-265); test: SPR Biacore 8K 37 C; TriNKET captured on anti-hFc chip, hCLEC12A-His as analyte; 1:1 fit; control sample, n=2
T2 construct: Recombinant soluble protein made in house (Dragonfly Tx); The hCLEC12A spot of the HuProt array is written under this molecule as well; also called hCLEC12A-His; hCLEC12A; not shown: His tag
T2 sequence: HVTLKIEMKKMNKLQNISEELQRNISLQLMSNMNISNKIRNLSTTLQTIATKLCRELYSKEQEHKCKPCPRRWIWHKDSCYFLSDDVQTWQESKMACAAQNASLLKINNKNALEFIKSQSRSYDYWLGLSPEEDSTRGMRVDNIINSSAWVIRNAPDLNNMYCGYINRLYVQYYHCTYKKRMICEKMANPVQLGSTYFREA

[2] = target: T3, Human CD16a V158 (FcγRIIIa V158) (human, UniProt P08637 17-208, biotinylated (site not stated)); test: SPR; biotinylated CD16a V158 captured on SA chip, TriNKET as analyte; 1:1 kinetic fit; after low pH hold, n=3
T3 construct: V158 is the allele name in mature numbering; also called hCD16aV; hCD16a V158
T3 sequence (P08637 17-208 F176V limits assumed): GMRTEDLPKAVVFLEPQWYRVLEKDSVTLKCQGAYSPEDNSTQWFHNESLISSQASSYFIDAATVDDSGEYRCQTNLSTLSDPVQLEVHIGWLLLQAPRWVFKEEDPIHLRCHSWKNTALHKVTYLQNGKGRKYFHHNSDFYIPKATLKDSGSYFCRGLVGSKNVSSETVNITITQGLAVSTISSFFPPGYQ

Human CLEC12A-His [3] = target: T2, Human CLEC12A-His; test: SPR Biacore 8K 37 C; TriNKET captured on anti-hFc chip, hCLEC12A-His as analyte; 1:1 fit; after low pH hold (pH 3.3, 1.5 h), n=4
mFc-hNKG2D = target: T4, mFc-hNKG2D (human, UniProt P26718 73-216); test: SPR Biacore 8K 37 C; mFc-hNKG2D captured on anti-mFc chip, TriNKET as analyte; steady state fit; after 4 wks 40 C in CST pH 7.0, n=3
T4 construct: extracellular domain; Made in house (Dragonfly Tx); the order of tag and ECD follows the name mFc-hNKG2D; also called mFc-tagged human NKG2D; not shown: mouse Fc tag
T4 sequence (looked up): T1 sequence (looked up) with N43D, I133T

B1: F3'-1602 TriNKET (bispecific antibody, human IgG1, kappa)
chain: QLQLQESGPGLVKPSETLSLTCTVSGFSLTNYGLHWIRQPPGKCLEWIGVIWSGGKTDYNPSLKSRVTISKDTSKNQFSLKLSSVQAADTAVYYCAKYDYDDSLDYWGQGTLVTVSSGGGGSGGGGSGGGGSGGGGSDIQMTQSPSSLSASVGDRVTITCHASQNINFWLSWYQQKPGKAPKLLIYEASNLHTGVPSRFSGSGSGTRFTLTISSLQPEDIATYYCQQSHSYPLTFGCGTKLEIKGSDKTHTCPPCPAPELLGGPSVFLFPPKPKDTLMISRTPEVTCVVVDVSHEDPEVKFNWYVDGVEVHNAKTKPREEQYNSTYRVVSVLTVLHQDWLNGKEYKCKVSNKALPAPIEKTISKAKGQPREPRVYTLPPCRDELTKNQVSLTCLVKGFYPSDIAVEWESNGQPENNYKTTPPVLVSDGSFTLYSKLTVDKSRWQQGNVFSCSVMHEALHNHYTQKSLSLSPG
heavy: EVQLVESGGGLVKPGGSLRLSCAASGFTFSSYSMNWVRQAPGKGLEWVSSISSSSSYIYYADSVKGRFTISRDNAKNSLYLQMNSLRAEDTAVYYCARGAPIGAAAGWFDPWGQGTLVTVSSASTKGPSVFPLAPSSKSTSGGTAALGCLVKDYFPEPVTVSWNSGALTSGVHTFPAVLQSSGLYSLSSVVTVPSSSLGTQTYICNVNHKPSNTKVDKKVEPKSCDKTHTCPPCPAPELLGGPSVFLFPPKPKDTLMISRTPEVTCVVVDVSHEDPEVKFNWYVDGVEVHNAKTKPREEQYNSTYRVVSVLTVLHQDWLNGKEYKCKVSNKALPAPIEKTISKAKGQPREPQVCTLPPSRDELTENQVSLTCLVKGFYPSDIAVEWESNGQPENNYKTTPPVLDSDGSFFLYSWLTVDKSRWQQGNVFSCSVMHEALHNHYTQKSLSLSPG
light: DIQMTQSPSSVSASVGDRVTITCRASQGISSWLAWYQQKPGKAPKLLIYAASSLQSGVPSRFSGSGSGTDFTLTISSLQPEDFATYYCQQGVSFPRTFGGGTKVEIKRTVAAPSVFIFPPSDEQLKSGTASVVCLLNNFYPREAKVQWKVDNALQSGNSQESVTEQDSKDSTYSLSSTLTLSKADYEKHKVYACEVTHQGLSSPVTKSFNRGEC
notes: Trispecific F3' format: CLEC12A scFv-Fc paired with NKG2D Fab-Fc; Stressed and control samples of the stability studies are the same molecule; also called AB0237
- Kd (mFc-cNKG2D): 839 nM
- Kd (Human CLEC12A-His [1]): 0.98 nM
- koff (Human CLEC12A-His [1]): 0.000735 s⁻¹
- kon (Human CLEC12A-His [1]): 750000 M⁻¹ s⁻¹
- Kd [2]: 210 nM
- koff [2]: 0.0229 s⁻¹
- kon [2]: 109000 M⁻¹ s⁻¹
- Kd (Human CLEC12A-His [3]): 0.644 nM
- kon (Human CLEC12A-His [3]): 715000 M⁻¹ s⁻¹
- Kd (mFc-hNKG2D): 711 nM
